Test results taken from article PMC13140710, “Small heat shock proteins HspB1 and HspB5 differentially alter the condensation and aggregation of the TDP‐43 low‐complexity domain” (Protein Science : A Publication of the Protein Society, 2026).

T1: HspB5^WT (wild-type human HspB5, αB‐crystallin) (human, UniProt P02511 1-175, Alexa Fluor 647 (NHS ester) label in TCCD and in the condensate partitioning experiment; unlabelled in the other assays)
T1 construct: Small heat shock protein HspB5 (αB-crystallin), human, wild type, full-length isoform; Vector pET3a or pET24a; source: E. coli BL21(DE3), purified
T1 sequence (looked up): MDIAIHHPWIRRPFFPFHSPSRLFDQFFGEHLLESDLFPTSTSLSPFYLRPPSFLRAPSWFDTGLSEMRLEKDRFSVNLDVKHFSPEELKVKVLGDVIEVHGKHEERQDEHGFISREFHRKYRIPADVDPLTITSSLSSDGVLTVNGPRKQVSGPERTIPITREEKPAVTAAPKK

B1: TDP‐43 low‐complexity domain (TDP‐43^LCD), amino acids 267–414 of TDP‐43 (domain or fragment, UniProt Q13148 267-414, looked up)
chain: NRQLERSGRFGGNPGGFGNQGGFGNSRGGGAGLGNNQGSNMGGGMNFGAFSINPAMMAAAQAALQSSWGMMGMLASQQNQSGPSGNNQNQGNMQREPNQAFGSGNNSYSGSNSGAAIGWGSASNAGSGSGFNGGFGSSMDSKSSGWGM
modifications: Cy5 (mono NHS ester) label in TCCD and, at 1% of the protein, in FRAP; unlabelled in the other assays
notes: source: E. coli BL21(DE3), purified from inclusion bodies (HisTrap in 8 M urea), buffer exchanged into 20 mM MES pH 6.0
B2: HspB5^ACD (core α‐crystallin domain of HspB5, residues 68–162) (domain or fragment, human, UniProt P02511 68-162, looked up)
chain: MRLEKDRFSVNLDVKHFSPEELKVKVLGDVIEVHGKHEERQDEHGFISREFHRKYRIPADVDPLTITSSLSSDGVLTVNGPRKQVSGPERTIPIT
modifications: Alexa Fluor 647 (NHS ester) label in TCCD and in the condensate partitioning experiment
notes: Small heat shock protein HspB5 (αB-crystallin), α-crystallin domain, residues 68-162; pET28 vector, gift of A. Laganowsky (Laganowsky et al., 2010); also called core domain of HspB5; source: E. coli BL21(DE3), purified

Key:
[1] = target: T1, HspB5^WT (wild-type human HspB5, …); experiment: two-color coincidence detection (TCCD), confocal single-molecule fluorescence; fluorescently labelled TDP-43^LCD and labelled sHsp, diluted to 200 nM in 20 mM MES pH 6.0, 25°C, both in solution; peaks found in both channels within 10 ms counted as coincident (hetero-oligomers); conditions: both partners purified
[2] = target: B1; experiment: as above; conditions: both partners purified

| Binder | binding result [1] | binding result [2] |
| --- | --- | --- |
| B1 | binds | – |
| B2 | – | binds |
